Experimental data from patent US20260201008A1, “SECRETIN-DERIVED GLP1R SELECTIVE AGONISTS” (GUBRA A/S, priority 2023, published 2026).
Numbered stars: 1 amine (or outer) side, 2 acyl side, 3 side chain; on linkers, the order of the positions; unused ones are H or OH. Square brackets hold non-standard residues; d marks the D form. Side chains are listed from the residue outwards. Ends that are not written are not given here. * marks the point of attachment. C20 diacid = O=C(O)CCCCCCCCCCCCCCCCCCC(=O)*; γGlu = O=C(O)[C@H](CCC(=O)[*:2])N[*:1]; AEEA = NCCOCCOCC(=O)O; Aib = CC(C)(N)C(=O)O

Columns and labels:
[1] = target: human GLP-1 receptor (hGLP1R) (human, UniProt P43220 24-463); test: cell-based or functional assay
[2] = target: human secretin receptor (hSCTR) (human, UniProt P47872 23-440); test: cell-based or functional assay
Chain of human secretin receptor (hSCTR) (P47872 23-440): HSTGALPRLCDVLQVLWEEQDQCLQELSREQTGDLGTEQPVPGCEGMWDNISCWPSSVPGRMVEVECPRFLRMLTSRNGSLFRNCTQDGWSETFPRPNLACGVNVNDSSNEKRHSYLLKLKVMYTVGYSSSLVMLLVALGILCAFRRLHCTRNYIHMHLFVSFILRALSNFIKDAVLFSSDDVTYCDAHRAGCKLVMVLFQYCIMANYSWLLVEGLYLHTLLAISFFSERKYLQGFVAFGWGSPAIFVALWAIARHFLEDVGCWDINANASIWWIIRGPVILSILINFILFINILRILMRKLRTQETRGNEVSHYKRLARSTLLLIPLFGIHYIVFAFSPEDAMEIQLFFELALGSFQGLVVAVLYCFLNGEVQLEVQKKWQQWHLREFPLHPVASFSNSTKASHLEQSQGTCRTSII

B1: SEQ ID NO: 113 (peptide)
peptide: H[Aib]EGTFTSDIS[Aib]LLEGAALQRFIQWLV-NH2
modifications: N-terminus assumed
SMILES: CC[C@H](C)[C@H](NC(=O)[C@H](Cc1ccccc1)NC(=O)[C@H](CCCNC(=N)N)NC(=O)[C@H](CCC(N)=O)NC(=O)[C@H](CC(C)C)NC(=O)[C@H](C)NC(=O)[C@H](C)NC(=O)CNC(=O)[C@H](CCC(=O)O)NC(=O)[C@H](CC(C)C)NC(=O)[C@H](CC(C)C)NC(=O)C(C)(C)NC(=O)[C@H](CO)NC(=O)[C@@H](NC(=O)[C@H](CC(=O)O)NC(=O)[C@H](CO)NC(=O)[C@@H](NC(=O)[C@H](Cc1ccccc1)NC(=O)[C@@H](NC(=O)CNC(=O)[C@H](CCC(=O)O)NC(=O)C(C)(C)NC(=O)[C@@H](N)Cc1c[nH]cn1)[C@@H](C)O)[C@@H](C)O)[C@@H](C)CC)C(=O)N[C@@H](CCC(N)=O)C(=O)N[C@@H](Cc1c[nH]c2ccccc12)C(=O)N[C@@H](CC(C)C)C(=O)N[C@H](C(N)=O)C(C)C
[1]
  pEC50 hGLPR1: 10.3 -log M
[2]
  pEC50 hSCTR: 7.1 -log M

B2: SEQ ID NO: 120 (peptide)
peptide: H[Aib]EGTFTSDISGLLEGAALQRFIQWLV-NH2
modifications: N-terminus assumed
SMILES: CC[C@H](C)[C@H](NC(=O)[C@H](CC(=O)O)NC(=O)[C@H](CO)NC(=O)[C@@H](NC(=O)[C@H](Cc1ccccc1)NC(=O)[C@@H](NC(=O)CNC(=O)[C@H](CCC(=O)O)NC(=O)C(C)(C)NC(=O)[C@@H](N)Cc1c[nH]cn1)[C@@H](C)O)[C@@H](C)O)C(=O)N[C@@H](CO)C(=O)NCC(=O)N[C@@H](CC(C)C)C(=O)N[C@@H](CC(C)C)C(=O)N[C@@H](CCC(=O)O)C(=O)NCC(=O)N[C@@H](C)C(=O)N[C@@H](C)C(=O)N[C@@H](CC(C)C)C(=O)N[C@@H](CCC(N)=O)C(=O)N[C@@H](CCCNC(=N)N)C(=O)N[C@@H](Cc1ccccc1)C(=O)N[C@H](C(=O)N[C@@H](CCC(N)=O)C(=O)N[C@@H](Cc1c[nH]c2ccccc12)C(=O)N[C@@H](CC(C)C)C(=O)N[C@H](C(N)=O)C(C)C)[C@@H](C)CC
[1]
  pEC50 hGLPR1: 10.3 -log M
[2]
  pEC50 hSCTR: 6.7 -log M

B3: SEQ ID NO: 123 (peptide)
peptide: H[Aib]EGTFTSDPSGLLEGAALQRFIQWLV-NH2
modifications: N-terminus assumed
SMILES: CC[C@H](C)[C@H](NC(=O)[C@H](Cc1ccccc1)NC(=O)[C@H](CCCNC(=N)N)NC(=O)[C@H](CCC(N)=O)NC(=O)[C@H](CC(C)C)NC(=O)[C@H](C)NC(=O)[C@H](C)NC(=O)CNC(=O)[C@H](CCC(=O)O)NC(=O)[C@H](CC(C)C)NC(=O)[C@H](CC(C)C)NC(=O)CNC(=O)[C@H](CO)NC(=O)[C@@H]1CCCN1C(=O)[C@H](CC(=O)O)NC(=O)[C@H](CO)NC(=O)[C@@H](NC(=O)[C@H](Cc1ccccc1)NC(=O)[C@@H](NC(=O)CNC(=O)[C@H](CCC(=O)O)NC(=O)C(C)(C)NC(=O)[C@@H](N)Cc1c[nH]cn1)[C@@H](C)O)[C@@H](C)O)C(=O)N[C@@H](CCC(N)=O)C(=O)N[C@@H](Cc1c[nH]c2ccccc12)C(=O)N[C@@H](CC(C)C)C(=O)N[C@H](C(N)=O)C(C)C
[1]
  pEC50 hGLPR1: 8 -log M
[2]
  pEC50 hSCTR: 5.2 -log M

B4: SEQ ID NO: 114 (peptide)
peptide: H[Aib]EGTFTSDISYLK([AEEA-AEEA-γGlu-C20 diacid])EEA[Aib]LQRFLEHLV-NH2
modifications: also: K14 lipid also given as C18DA[γE][OEG][OEG]-
[1]
  pEC50 hGLPR1: 11 -log M
[2]
  pEC50 hSCTR: 7.4 -log M

B5: SEQ ID NO: 121 (peptide)
peptide: H[Aib]EGTFTSDPSYLKEEA[Aib]LQRFLEHLV-NH2
modifications: not fully specified (residue 14)
[1]
  pEC50 hGLPR1: 8.6 -log M
[2]
  pEC50 hSCTR: 4.4 -log M

B6: SEQ ID NO: 117 (peptide)
peptide: H[Aib]EGTFTSDISFLLEGAALQRFIQWLV-NH2
modifications: N-terminus assumed
SMILES: CC[C@H](C)[C@H](NC(=O)[C@H](Cc1ccccc1)NC(=O)[C@H](CCCNC(=N)N)NC(=O)[C@H](CCC(N)=O)NC(=O)[C@H](CC(C)C)NC(=O)[C@H](C)NC(=O)[C@H](C)NC(=O)CNC(=O)[C@H](CCC(=O)O)NC(=O)[C@H](CC(C)C)NC(=O)[C@H](CC(C)C)NC(=O)[C@H](Cc1ccccc1)NC(=O)[C@H](CO)NC(=O)[C@@H](NC(=O)[C@H](CC(=O)O)NC(=O)[C@H](CO)NC(=O)[C@@H](NC(=O)[C@H](Cc1ccccc1)NC(=O)[C@@H](NC(=O)CNC(=O)[C@H](CCC(=O)O)NC(=O)C(C)(C)NC(=O)[C@@H](N)Cc1c[nH]cn1)[C@@H](C)O)[C@@H](C)O)[C@@H](C)CC)C(=O)N[C@@H](CCC(N)=O)C(=O)N[C@@H](Cc1c[nH]c2ccccc12)C(=O)N[C@@H](CC(C)C)C(=O)N[C@H](C(N)=O)C(C)C
[1]
  pEC50 hGLPR1: 11 -log M
[2]
  pEC50 hSCTR: 6.7 -log M

B7: SEQ ID NO: 12 (peptide)
peptide: H[Aib]EGTFTSDVSELKELAASQRFLEHLV-NH2
modifications: not fully specified (residue 14)
[1]
  pEC50 hGLPR1: 10.7 -log M
[2]
  pEC50 hSCTR: 6.2 -log M

B8: SEQ ID NO: 116 (peptide)
peptide: H[Aib]EGTFTSDISVLLEGAALQRFIQWLV-NH2
modifications: N-terminus assumed
SMILES: CC[C@H](C)[C@H](NC(=O)[C@H](Cc1ccccc1)NC(=O)[C@H](CCCNC(=N)N)NC(=O)[C@H](CCC(N)=O)NC(=O)[C@H](CC(C)C)NC(=O)[C@H](C)NC(=O)[C@H](C)NC(=O)CNC(=O)[C@H](CCC(=O)O)NC(=O)[C@H](CC(C)C)NC(=O)[C@H](CC(C)C)NC(=O)[C@@H](NC(=O)[C@H](CO)NC(=O)[C@@H](NC(=O)[C@H](CC(=O)O)NC(=O)[C@H](CO)NC(=O)[C@@H](NC(=O)[C@H](Cc1ccccc1)NC(=O)[C@@H](NC(=O)CNC(=O)[C@H](CCC(=O)O)NC(=O)C(C)(C)NC(=O)[C@@H](N)Cc1c[nH]cn1)[C@@H](C)O)[C@@H](C)O)[C@@H](C)CC)C(C)C)C(=O)N[C@@H](CCC(N)=O)C(=O)N[C@@H](Cc1c[nH]c2ccccc12)C(=O)N[C@@H](CC(C)C)C(=O)N[C@H](C(N)=O)C(C)C
[1]
  pEC50 hGLPR1: 10.3 -log M
[2]
  pEC50 hSCTR: 7.1 -log M

B9: SEQ ID NO: 122 (peptide)
peptide: H[Aib]EGTFTSDPSELLEGAALQRFIQWLV-NH2
modifications: N-terminus assumed
SMILES: CC[C@H](C)[C@H](NC(=O)[C@H](Cc1ccccc1)NC(=O)[C@H](CCCNC(=N)N)NC(=O)[C@H](CCC(N)=O)NC(=O)[C@H](CC(C)C)NC(=O)[C@H](C)NC(=O)[C@H](C)NC(=O)CNC(=O)[C@H](CCC(=O)O)NC(=O)[C@H](CC(C)C)NC(=O)[C@H](CC(C)C)NC(=O)[C@H](CCC(=O)O)NC(=O)[C@H](CO)NC(=O)[C@@H]1CCCN1C(=O)[C@H](CC(=O)O)NC(=O)[C@H](CO)NC(=O)[C@@H](NC(=O)[C@H](Cc1ccccc1)NC(=O)[C@@H](NC(=O)CNC(=O)[C@H](CCC(=O)O)NC(=O)C(C)(C)NC(=O)[C@@H](N)Cc1c[nH]cn1)[C@@H](C)O)[C@@H](C)O)C(=O)N[C@@H](CCC(N)=O)C(=O)N[C@@H](Cc1c[nH]c2ccccc12)C(=O)N[C@@H](CC(C)C)C(=O)N[C@H](C(N)=O)C(C)C
[1]
  pEC50 hGLPR1: 8.2 -log M
[2]
  pEC50 hSCTR: 5.3 -log M

B10: SEQ ID NO: 119 (peptide)
peptide: H[Aib]EGTFTSDISELLEGAALQRFIQWLV-NH2
modifications: N-terminus assumed
SMILES: CC[C@H](C)[C@H](NC(=O)[C@H](Cc1ccccc1)NC(=O)[C@H](CCCNC(=N)N)NC(=O)[C@H](CCC(N)=O)NC(=O)[C@H](CC(C)C)NC(=O)[C@H](C)NC(=O)[C@H](C)NC(=O)CNC(=O)[C@H](CCC(=O)O)NC(=O)[C@H](CC(C)C)NC(=O)[C@H](CC(C)C)NC(=O)[C@H](CCC(=O)O)NC(=O)[C@H](CO)NC(=O)[C@@H](NC(=O)[C@H](CC(=O)O)NC(=O)[C@H](CO)NC(=O)[C@@H](NC(=O)[C@H](Cc1ccccc1)NC(=O)[C@@H](NC(=O)CNC(=O)[C@H](CCC(=O)O)NC(=O)C(C)(C)NC(=O)[C@@H](N)Cc1c[nH]cn1)[C@@H](C)O)[C@@H](C)O)[C@@H](C)CC)C(=O)N[C@@H](CCC(N)=O)C(=O)N[C@@H](Cc1c[nH]c2ccccc12)C(=O)N[C@@H](CC(C)C)C(=O)N[C@H](C(N)=O)C(C)C
[1]
  pEC50 hGLPR1: 10.6 -log M
[2]
  pEC50 hSCTR: 7.3 -log M

B11: SEQ ID NO: 115 (peptide)
peptide: H[Aib]EGTFTSDISRLLEGAALQRFIQWLV-NH2
modifications: N-terminus assumed
SMILES: CC[C@H](C)[C@H](NC(=O)[C@H](Cc1ccccc1)NC(=O)[C@H](CCCNC(=N)N)NC(=O)[C@H](CCC(N)=O)NC(=O)[C@H](CC(C)C)NC(=O)[C@H](C)NC(=O)[C@H](C)NC(=O)CNC(=O)[C@H](CCC(=O)O)NC(=O)[C@H](CC(C)C)NC(=O)[C@H](CC(C)C)NC(=O)[C@H](CCCNC(=N)N)NC(=O)[C@H](CO)NC(=O)[C@@H](NC(=O)[C@H](CC(=O)O)NC(=O)[C@H](CO)NC(=O)[C@@H](NC(=O)[C@H](Cc1ccccc1)NC(=O)[C@@H](NC(=O)CNC(=O)[C@H](CCC(=O)O)NC(=O)C(C)(C)NC(=O)[C@@H](N)Cc1c[nH]cn1)[C@@H](C)O)[C@@H](C)O)[C@@H](C)CC)C(=O)N[C@@H](CCC(N)=O)C(=O)N[C@@H](Cc1c[nH]c2ccccc12)C(=O)N[C@@H](CC(C)C)C(=O)N[C@H](C(N)=O)C(C)C
[1]
  pEC50 hGLPR1: 10.4 -log M
[2]
  pEC50 hSCTR: 7.8 -log M

B12: SEQ ID NO: 118 (peptide)
peptide: H[Aib]EGTFTSDISWLLEGAALQRFIQWLV-NH2
modifications: N-terminus assumed
SMILES: CC[C@H](C)[C@H](NC(=O)[C@H](Cc1ccccc1)NC(=O)[C@H](CCCNC(=N)N)NC(=O)[C@H](CCC(N)=O)NC(=O)[C@H](CC(C)C)NC(=O)[C@H](C)NC(=O)[C@H](C)NC(=O)CNC(=O)[C@H](CCC(=O)O)NC(=O)[C@H](CC(C)C)NC(=O)[C@H](CC(C)C)NC(=O)[C@H](Cc1c[nH]c2ccccc12)NC(=O)[C@H](CO)NC(=O)[C@@H](NC(=O)[C@H](CC(=O)O)NC(=O)[C@H](CO)NC(=O)[C@@H](NC(=O)[C@H](Cc1ccccc1)NC(=O)[C@@H](NC(=O)CNC(=O)[C@H](CCC(=O)O)NC(=O)C(C)(C)NC(=O)[C@@H](N)Cc1c[nH]cn1)[C@@H](C)O)[C@@H](C)O)[C@@H](C)CC)C(=O)N[C@@H](CCC(N)=O)C(=O)N[C@@H](Cc1c[nH]c2ccccc12)C(=O)N[C@@H](CC(C)C)C(=O)N[C@H](C(N)=O)C(C)C
[1]
  pEC50 hGLPR1: 10.2 -log M
[2]
  pEC50 hSCTR: 7.1 -log M
